Assays:
DRB4 = target: T1, DRB4 (Arabidopsis thaliana, UniProt Q8H1D4 1-355); test: ITC
T1 sequence: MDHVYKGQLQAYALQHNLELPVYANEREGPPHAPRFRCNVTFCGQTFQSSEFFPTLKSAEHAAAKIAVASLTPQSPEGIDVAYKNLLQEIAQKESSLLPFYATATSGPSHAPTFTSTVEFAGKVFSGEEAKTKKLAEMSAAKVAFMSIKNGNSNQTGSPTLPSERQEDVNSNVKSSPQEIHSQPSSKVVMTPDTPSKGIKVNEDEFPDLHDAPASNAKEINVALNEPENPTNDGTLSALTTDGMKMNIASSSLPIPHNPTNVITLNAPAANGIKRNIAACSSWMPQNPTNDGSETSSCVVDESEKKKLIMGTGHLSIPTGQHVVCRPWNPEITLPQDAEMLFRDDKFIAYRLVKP

DRB4D1D2 H32A/K133A = target: T2, DRB4D1D2 H32A/K133A (Arabidopsis thaliana, UniProt Q8H1D4 1-153, H32A;K133A); test: EMSA
T2 sequence: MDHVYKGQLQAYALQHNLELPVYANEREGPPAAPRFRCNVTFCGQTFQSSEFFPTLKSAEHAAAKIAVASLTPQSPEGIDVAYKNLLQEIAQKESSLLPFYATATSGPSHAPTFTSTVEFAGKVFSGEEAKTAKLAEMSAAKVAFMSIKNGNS

DRB4C = target: T3, DRB4C (Arabidopsis thaliana, UniProt Q8H1D4 154-355); test: EMSA
T3 sequence: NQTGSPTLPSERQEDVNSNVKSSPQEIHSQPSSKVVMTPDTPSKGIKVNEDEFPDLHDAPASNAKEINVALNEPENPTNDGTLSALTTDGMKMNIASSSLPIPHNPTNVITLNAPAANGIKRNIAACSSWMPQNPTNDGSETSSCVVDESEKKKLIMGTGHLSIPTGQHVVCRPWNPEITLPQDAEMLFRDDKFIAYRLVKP

DRB4 H32A/K133A = target: T4, DRB4 H32A/K133A (Arabidopsis thaliana, UniProt Q8H1D4 1-355, H32A;K133A); test: EMSA
T4 sequence: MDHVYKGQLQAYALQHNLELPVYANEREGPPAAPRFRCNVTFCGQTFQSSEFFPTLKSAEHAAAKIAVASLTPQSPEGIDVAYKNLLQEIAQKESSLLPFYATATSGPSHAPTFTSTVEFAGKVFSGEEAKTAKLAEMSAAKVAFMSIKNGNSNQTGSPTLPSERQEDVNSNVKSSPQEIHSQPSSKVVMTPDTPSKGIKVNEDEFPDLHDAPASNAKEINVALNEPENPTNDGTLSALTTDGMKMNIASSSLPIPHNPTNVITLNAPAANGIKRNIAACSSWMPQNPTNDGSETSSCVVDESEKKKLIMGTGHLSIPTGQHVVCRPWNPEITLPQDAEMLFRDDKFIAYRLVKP

DRB4D1D2 = target: T5, DRB4D1D2 (Arabidopsis thaliana, UniProt Q8H1D4 1-153); test: ITC
T5 sequence: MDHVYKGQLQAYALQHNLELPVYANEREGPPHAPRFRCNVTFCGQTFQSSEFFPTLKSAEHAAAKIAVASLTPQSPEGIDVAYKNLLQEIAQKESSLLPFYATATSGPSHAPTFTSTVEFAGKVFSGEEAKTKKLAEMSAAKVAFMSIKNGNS

DRB4D2D1 = target: T6, DRB4D2D1 (Arabidopsis thaliana, UniProt Q8H1D4 1-3+82-150+73-81+4-72, internal_change); test: ITC
T6 sequence: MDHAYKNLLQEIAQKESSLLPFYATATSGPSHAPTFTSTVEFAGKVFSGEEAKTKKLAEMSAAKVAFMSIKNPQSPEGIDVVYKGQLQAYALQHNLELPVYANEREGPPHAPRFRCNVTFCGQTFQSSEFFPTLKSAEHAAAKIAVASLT

B1: 80 bp dsRNA (dsRNA)
RNA 1: GGGUGCUGUUUCUCGUGUUCGUGUUCGUUUCUCUUCUCUUGUCCUUGUUCUGUUCUCCUUUGUUCGUUCCUGUUCCCCUU
RNA 2: AAGGGGAACAGGAACGAACAAAGGAGAACAGAACAAGGACAAGAGAAGAGAAACGAACACGAACACGAGAAACAGCACCC
- Kd (DRB4): 120 ± 40 nM
- binding result (DRB4D1D2 H32A/K133A): no binding
- binding result (DRB4C): no binding
- binding result (DRB4 H32A/K133A): no binding
- Kd (DRB4D1D2): 400 ± 30 nM
- Kd (DRB4D2D1): 4000 ± 400 nM
